Assay results from patent publication US20140087995A1 (published 2014).
Numbered stars: 1 amine (or outer) side, 2 acyl side, 3 side chain; on linkers, the order of the positions; unused ones are H or OH. Bridge positions count the residues as written; N and C are the ends. * marks the point of attachment. C20 diacid = O=C(O)CCCCCCCCCCCCCCCCCCC(=O)*; γGlu = O=C(O)[C@H](CCC(=O)[*:2])N[*:1]

T1: human calcitonin receptor (human, UniProt P30988 25-474)
T1 sequence (looked up): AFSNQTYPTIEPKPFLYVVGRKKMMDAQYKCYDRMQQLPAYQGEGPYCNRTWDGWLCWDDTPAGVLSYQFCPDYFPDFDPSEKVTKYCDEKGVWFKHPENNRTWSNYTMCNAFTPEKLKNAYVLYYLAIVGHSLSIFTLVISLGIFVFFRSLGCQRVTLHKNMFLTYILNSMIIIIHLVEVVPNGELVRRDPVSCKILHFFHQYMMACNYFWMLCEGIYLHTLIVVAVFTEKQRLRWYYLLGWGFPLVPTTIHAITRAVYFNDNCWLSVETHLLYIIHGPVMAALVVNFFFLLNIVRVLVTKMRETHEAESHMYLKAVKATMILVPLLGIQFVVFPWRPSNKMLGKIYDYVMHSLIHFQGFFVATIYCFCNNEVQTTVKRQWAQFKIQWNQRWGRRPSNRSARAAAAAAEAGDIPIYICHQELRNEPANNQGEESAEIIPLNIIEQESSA

T2: human amylin 3(a) receptor (human calcitonin receptor plus RAMP-3) (human, UniProt P30988 25-474; O60896 24-148, limits assumed)
T2 sequence (looked up) 1: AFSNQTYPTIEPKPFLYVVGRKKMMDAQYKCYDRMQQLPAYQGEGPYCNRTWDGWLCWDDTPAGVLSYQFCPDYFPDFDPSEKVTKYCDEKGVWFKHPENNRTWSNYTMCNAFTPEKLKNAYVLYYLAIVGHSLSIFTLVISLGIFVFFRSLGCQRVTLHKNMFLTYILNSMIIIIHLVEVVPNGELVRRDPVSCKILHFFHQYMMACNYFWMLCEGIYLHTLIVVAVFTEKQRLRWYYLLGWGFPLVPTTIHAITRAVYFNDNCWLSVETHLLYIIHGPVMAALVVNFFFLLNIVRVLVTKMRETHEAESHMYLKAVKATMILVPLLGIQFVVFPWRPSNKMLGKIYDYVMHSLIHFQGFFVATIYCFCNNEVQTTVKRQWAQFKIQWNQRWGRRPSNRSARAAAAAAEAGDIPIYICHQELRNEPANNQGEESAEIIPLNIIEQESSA
T2 sequence (looked up) 2: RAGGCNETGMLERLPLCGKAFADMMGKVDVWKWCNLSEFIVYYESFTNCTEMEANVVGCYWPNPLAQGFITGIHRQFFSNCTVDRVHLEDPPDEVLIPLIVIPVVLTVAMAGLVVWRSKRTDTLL


Legend:
[1] = target: T1, human calcitonin receptor; experiment: cell-based or functional assay
[2] = target: T2, human amylin 3(a) receptor (human …); experiment: cell-based or functional assay
[3] = target: T2, human amylin 3(a) receptor (human …); experiment: SPA competition binding, displacement of 125I-rat amylin from membranes of Amylin 3(a)/CRE-luc BHK cells (Assay V)
Procedure: The binding assay was performed using scintillation proximity assay (SPA) beads (RPNQ0001) from PerkinElmer and cell membranes from the Amylin 3(a)/CRE-luc cells (as described in Assay (II)) were used. Membranes were prepared in the following way; the cells were rinsed with PBS and incubated with Versene for approximately 5 min before harvesting. The cells were flushed with PBS and the cell-suspension was centrifuged for 5 min at 1000 rpm. Cells were homogenized (ultrathurrax) in a buffer containing 20 mM Na-HEPES and 10 mM EDTA (pH 7.4) and centrifuged at 20.000 rpm for 15 min. The resulting pellet was resuspended, homogenized and centrifuged (20.000 rpm, 15 min) in a buffer containing 20 mM Na-HEPES and 0.1 mM EDTA (pH 7.4, buffer 2). The resulting pellet was resuspended in buffer 2 and protein concentration was measured (BCA protein Assay, Pierce). The homogenate was kept cold during the whole procedure. The membranes were kept at −80° C. until use. The assay was performed in a 384 well Optiplate (PerkinElmer) in a total volume of 40 ul. Membranes were mixed with SPA beads. Final concentration of membranes 35 ng/μL final and SPA beads was 0.05 mg/well. Test-compounds were dissolved in DMSO and further diluted in assay buffer (50 mM Hepes, pH 7.4, 1 mM CaCl2, 5 mM MgCl₂, 0.1% OA and 0.02% Tween20). […] The final mixture was incubated with shaking at 400 rpm for 120 min at 25° C. prior to centrifugation (1500 rpm, 10 min). Samples were analyzed on TopCounter™ (Packard). The IC₅₀ was calculated using (one site binding competition analysis) GraphPad Prism5 as a measure of receptor affinity.

Row | Binder | hCTR funct. EC50 [1] [nM] | Ratio hCT/hAmylin funct. [2] | hAmylin-R funct. EC50 [2] [nM] | IC50 [3] [nM]
1 | {C20 diacid-γGlu}-KCNTATCATQRLAEFLRHSSPNFGAIPSSTNVGHNTY-NH2 (disulfide 2-7; SMILES CC[C@H](C)[C@H](NC(=O)[C@H](C)NC(=O)CNC(=O)[C@H](Cc1ccccc1)NC(=O)[C@H](CC(N)=O)NC(=O)[C@@H]1CCCN1C(=O)[C@H](CO)NC(=O)[C@H](CO)NC(=O)[C@H](Cc1c[nH]cn1)NC(=O)[C@H](CCCNC(=N)N)NC(=O)[C@H](CC(C)C)NC(=O)[C@H](Cc1ccccc1)NC(=O)[C@H](CCC(=O)O)NC(=O)[C@H](C)NC(=O)[C@H](CC(C)C)NC(=O)[C@H](CCCNC(=N)N)NC(=O)[C@H](CCC(N)=O)NC(=O)[C@@H](NC(=O)[C@H](C)NC(=O)[C@@H]1CSSC[C@H](NC(=O)[C@H](CCCCN)NC(=O)CC[C@H](NC(=O)CCCCCCCCCCCCCCCCCCC(=O)O)C(=O)O)C(=O)N[C@@H](CC(N)=O)C(=O)N[C@@H]([C@@H](C)O)C(=O)N[C@@H](C)C(=O)N[C@@H]([C@@H](C)O)C(=O)N1)[C@@H](C)O)C(=O)N1CCC[C@H]1C(=O)N[C@@H](CO)C(=O)N[C@@H](CO)C(=O)N[C@H](C(=O)N[C@@H](CC(N)=O)C(=O)N[C@H](C(=O)NCC(=O)N[C@@H](Cc1c[nH]cn1)C(=O)N[C@@H](CC(N)=O)C(=O)N[C@H](C(=O)N[C@@H](Cc1ccc(O)cc1)C(N)=O)[C@@H](C)O)C(C)C)[C@@H](C)O, also called compound 17) | 2.35 | 8.8 | 0.268 | 0.878
2 | {C20 diacid-γGlu}-KCNTATCATQRLAEFLRHSSPNFGAIPSPTNVGSNTY-NH2 (disulfide 2-7; SMILES CC[C@H](C)[C@H](NC(=O)[C@H](C)NC(=O)CNC(=O)[C@H](Cc1ccccc1)NC(=O)[C@H](CC(N)=O)NC(=O)[C@@H]1CCCN1C(=O)[C@H](CO)NC(=O)[C@H](CO)NC(=O)[C@H](Cc1c[nH]cn1)NC(=O)[C@H](CCCNC(=N)N)NC(=O)[C@H](CC(C)C)NC(=O)[C@H](Cc1ccccc1)NC(=O)[C@H](CCC(=O)O)NC(=O)[C@H](C)NC(=O)[C@H](CC(C)C)NC(=O)[C@H](CCCNC(=N)N)NC(=O)[C@H](CCC(N)=O)NC(=O)[C@@H](NC(=O)[C@H](C)NC(=O)[C@@H]1CSSC[C@H](NC(=O)[C@H](CCCCN)NC(=O)CC[C@H](NC(=O)CCCCCCCCCCCCCCCCCCC(=O)O)C(=O)O)C(=O)N[C@@H](CC(N)=O)C(=O)N[C@@H]([C@@H](C)O)C(=O)N[C@@H](C)C(=O)N[C@@H]([C@@H](C)O)C(=O)N1)[C@@H](C)O)C(=O)N1CCC[C@H]1C(=O)N[C@@H](CO)C(=O)N1CCC[C@H]1C(=O)N[C@H](C(=O)N[C@@H](CC(N)=O)C(=O)N[C@H](C(=O)NCC(=O)N[C@@H](CO)C(=O)N[C@@H](CC(N)=O)C(=O)N[C@H](C(=O)N[C@@H](Cc1ccc(O)cc1)C(N)=O)[C@@H](C)O)C(C)C)[C@@H](C)O, also called compound 37) | 0.372 | 4 | 0.092 | 0.97
3 | {C20 diacid-γGlu}-KCNTATCATQRLAEFLRHSSPNFGAIPSSTPVGSNTY-NH2 (disulfide 2-7; SMILES CC[C@H](C)[C@H](NC(=O)[C@H](C)NC(=O)CNC(=O)[C@H](Cc1ccccc1)NC(=O)[C@H](CC(N)=O)NC(=O)[C@@H]1CCCN1C(=O)[C@H](CO)NC(=O)[C@H](CO)NC(=O)[C@H](Cc1c[nH]cn1)NC(=O)[C@H](CCCNC(=N)N)NC(=O)[C@H](CC(C)C)NC(=O)[C@H](Cc1ccccc1)NC(=O)[C@H](CCC(=O)O)NC(=O)[C@H](C)NC(=O)[C@H](CC(C)C)NC(=O)[C@H](CCCNC(=N)N)NC(=O)[C@H](CCC(N)=O)NC(=O)[C@@H](NC(=O)[C@H](C)NC(=O)[C@@H]1CSSC[C@H](NC(=O)[C@H](CCCCN)NC(=O)CC[C@H](NC(=O)CCCCCCCCCCCCCCCCCCC(=O)O)C(=O)O)C(=O)N[C@@H](CC(N)=O)C(=O)N[C@@H]([C@@H](C)O)C(=O)N[C@@H](C)C(=O)N[C@@H]([C@@H](C)O)C(=O)N1)[C@@H](C)O)C(=O)N1CCC[C@H]1C(=O)N[C@@H](CO)C(=O)N[C@@H](CO)C(=O)N[C@H](C(=O)N1CCC[C@H]1C(=O)N[C@H](C(=O)NCC(=O)N[C@@H](CO)C(=O)N[C@@H](CC(N)=O)C(=O)N[C@H](C(=O)N[C@@H](Cc1ccc(O)cc1)C(N)=O)[C@@H](C)O)C(C)C)[C@@H](C)O, also called compound 31) | 0.717 | 6.4 | 0.112 | 0.204

The remaining binders from weak to strong by IC50 [3], led by results:

Row | hCTR funct. EC50 [1] [nM] | Ratio hCT/hAmylin funct. [2] | hAmylin-R funct. EC50 [2] [nM] | IC50 [3] [nM] | Binder
4 | 0.742 | 4.8 | 0.154 | 0.554 | {C20 diacid-γGlu}-KCNTATCATQRLAEFLRHSSPNFGAIPSSTNVGSHTY-NH2 (disulfide 2-7; SMILES CC[C@H](C)[C@H](NC(=O)[C@H](C)NC(=O)CNC(=O)[C@H](Cc1ccccc1)NC(=O)[C@H](CC(N)=O)NC(=O)[C@@H]1CCCN1C(=O)[C@H](CO)NC(=O)[C@H](CO)NC(=O)[C@H](Cc1c[nH]cn1)NC(=O)[C@H](CCCNC(=N)N)NC(=O)[C@H](CC(C)C)NC(=O)[C@H](Cc1ccccc1)NC(=O)[C@H](CCC(=O)O)NC(=O)[C@H](C)NC(=O)[C@H](CC(C)C)NC(=O)[C@H](CCCNC(=N)N)NC(=O)[C@H](CCC(N)=O)NC(=O)[C@@H](NC(=O)[C@H](C)NC(=O)[C@@H]1CSSC[C@H](NC(=O)[C@H](CCCCN)NC(=O)CC[C@H](NC(=O)CCCCCCCCCCCCCCCCCCC(=O)O)C(=O)O)C(=O)N[C@@H](CC(N)=O)C(=O)N[C@@H]([C@@H](C)O)C(=O)N[C@@H](C)C(=O)N[C@@H]([C@@H](C)O)C(=O)N1)[C@@H](C)O)C(=O)N1CCC[C@H]1C(=O)N[C@@H](CO)C(=O)N[C@@H](CO)C(=O)N[C@H](C(=O)N[C@@H](CC(N)=O)C(=O)N[C@H](C(=O)NCC(=O)N[C@@H](CO)C(=O)N[C@@H](Cc1c[nH]cn1)C(=O)N[C@H](C(=O)N[C@@H](Cc1ccc(O)cc1)C(N)=O)[C@@H](C)O)C(C)C)[C@@H](C)O, also called compound 18)
5 | 0.327 | 6.6 | 0.05 | 0.1 | {C20 diacid-γGlu}-KCNTATCATQRLAEFLRHSSPNFGAIPSSTNVGPNTY-NH2 (disulfide 2-7; SMILES CC[C@H](C)[C@H](NC(=O)[C@H](C)NC(=O)CNC(=O)[C@H](Cc1ccccc1)NC(=O)[C@H](CC(N)=O)NC(=O)[C@@H]1CCCN1C(=O)[C@H](CO)NC(=O)[C@H](CO)NC(=O)[C@H](Cc1c[nH]cn1)NC(=O)[C@H](CCCNC(=N)N)NC(=O)[C@H](CC(C)C)NC(=O)[C@H](Cc1ccccc1)NC(=O)[C@H](CCC(=O)O)NC(=O)[C@H](C)NC(=O)[C@H](CC(C)C)NC(=O)[C@H](CCCNC(=N)N)NC(=O)[C@H](CCC(N)=O)NC(=O)[C@@H](NC(=O)[C@H](C)NC(=O)[C@@H]1CSSC[C@H](NC(=O)[C@H](CCCCN)NC(=O)CC[C@H](NC(=O)CCCCCCCCCCCCCCCCCCC(=O)O)C(=O)O)C(=O)N[C@@H](CC(N)=O)C(=O)N[C@@H]([C@@H](C)O)C(=O)N[C@@H](C)C(=O)N[C@@H]([C@@H](C)O)C(=O)N1)[C@@H](C)O)C(=O)N1CCC[C@H]1C(=O)N[C@@H](CO)C(=O)N[C@@H](CO)C(=O)N[C@H](C(=O)N[C@@H](CC(N)=O)C(=O)N[C@H](C(=O)NCC(=O)N1CCC[C@H]1C(=O)N[C@@H](CC(N)=O)C(=O)N[C@H](C(=O)N[C@@H](Cc1ccc(O)cc1)C(N)=O)[C@@H](C)O)C(C)C)[C@@H](C)O, also called compound 32)
